Entries after “also recorded” stand apart in the source; their conditions may differ.
Key:
canine PTH1 receptor [1] = target: T1, canine PTH1 receptor (Canis lupus familiaris, UniProt Q9TU31); experiment: Whole cell 125I-human PTH (1-34) competition binding to canine PTH1 transiently transfected CHO cells; conditions: canine PTH1/pCR3.1 transiently transfected CHO cells, 2 hours on ice
T1 construct: A 1868 bp DNA fragment containing the complete coding region of canine PTH1 was generated by PCR; expressed in transfected cells; host or cells: CHO-K1 cells, transient transfection with canine PTH1-pCR3.1
T1 sequence (Q9TU31 29-595): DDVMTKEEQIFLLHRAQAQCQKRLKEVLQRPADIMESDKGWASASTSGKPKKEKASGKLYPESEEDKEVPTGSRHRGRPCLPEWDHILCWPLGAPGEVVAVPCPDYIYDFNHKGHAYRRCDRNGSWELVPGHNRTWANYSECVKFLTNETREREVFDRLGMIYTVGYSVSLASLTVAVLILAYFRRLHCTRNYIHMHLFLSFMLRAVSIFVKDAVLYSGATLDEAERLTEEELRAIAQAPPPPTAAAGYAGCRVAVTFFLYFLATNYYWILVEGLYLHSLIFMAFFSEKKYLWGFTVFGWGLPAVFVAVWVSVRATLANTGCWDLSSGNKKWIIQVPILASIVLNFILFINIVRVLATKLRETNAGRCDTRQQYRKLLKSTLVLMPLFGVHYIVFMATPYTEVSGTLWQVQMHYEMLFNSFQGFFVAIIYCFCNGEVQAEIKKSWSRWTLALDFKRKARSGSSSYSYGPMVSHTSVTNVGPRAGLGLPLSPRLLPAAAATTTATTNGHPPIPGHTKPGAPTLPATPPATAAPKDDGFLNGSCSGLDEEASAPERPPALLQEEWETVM
Procedure: (§1) CHO-K1 cells were purchased from ATCC (Rockville, Md.) and maintained in Dulbecco's modified Eagle's medium/F12 (DMEM/F12, Life Technologies, Gaithersburg, Md.) supplemented with 10% fetal calf serum (FCS, Gemini Bio-Products, Calabasas, Calif.). CHO cells were plated in 12 and 24-well plates (Becton Dickinson, Franklin Lakes, N.J.) at 1.6×10^6 cells/plate in DMEM/F12 supplemented with 10% FCS. 24 hours later, each plate of cells was transfected with 10 μg of the canine PTH1-pCR3.1 expression plasmid using Lipofectamine reagent (Life Technologies). Total volume of DNA-lipofectamine mix was 500 μl/well and 250 μl/well in the 12- and 24-well plates, respectively. After 5 hours, an equal volume of media supplemented with 20% FCS was added to each well and after 24 hours, the media was replaced with growth media. The cells were then allowed to grow for an additional 24 hours, at which time the cells in the 24-well plates were used in the PTH binding assay and the cells in the 12-well plates were used to determine receptor activation by measuring cAMP.
(§2) ^125I-human PTH 1-34 amide (2000 Ci/mmol) was purchased from Amersham (Arlington Heights, Ill.). Human PTH 1-34 and human PTHrP 1-34 were purchased from Peninsula Laboratories (San Carlos, Calif.). Canine PTH (1-34) and PTHrP (1-34) (Rosol, 1995) were custom synthesized by Princeton BioMolecules (Columbus, Ohio). Human aldosterone secretion inhibitory factor (1-35), used as a similarly sized non-specific peptide, was purchased from Sigma.
Canine PTH1 transiently transfected CHO cells in 24-well plates were subjected to whole cell human ^125I-PTH (1-34) competition binding. Culture media was removed, cell monolayers washed once each with ice-cold Dulbecco's phosphate buffered saline (Life Technologies) and ice-cold assay buffer (AB; 50 mM Tris-HCl, 100 mM NaCl, 2 mM CaCl2, 5 mM KCl, 0.5% heat inactivated FCS (Life Technologies), and 5% heat-inactivated horse serum (Life Technologies), pH 7.7). Subsequent to adding 225 μl of AB to each well, 25 μl of 10x peptide (10^−4- […]) in AB containing 800 cpms/μl of ^125I-human PTH (1-34) was added to each of three wells. Plates were incubated for 2 hours on ice, binding mix removed by aspiration, washed 2x with ice-cold assay AB, cells solubilized in 1% SDS and total bound counts determined. Percent bound ^125I-PTH (1-34) was calculated using the following equation: [formula]

canine PTH1 receptor [2] = target: T1, canine PTH1 receptor; experiment: Intracellular cAMP accumulation in CHO cells transiently transfected with canine PTH1; assay type: cell-based; conditions: peptide 10^-7 M, 15 minutes at 37° C.
Procedure: as §1, §2
To measure stimulation of cAMP production, cells transiently transfected with canine PTH1 were rinsed once with test medium (serum-free DMEM/F12 containing 0.2 mM 3-isobutyl-1-methylxanthine (IBMX; Calbiochem, La Jolla, Calif.)), then preincubated with 1 ml/well test medium for 10 minutes at 37° C. This medium was removed and cells were incubated with test medium containing the indicated peptides (10^−7 M) for 15 minutes at 37° C. […] Upon thawing cAMP was measured using a commercially available ELISA kit (Cayman Chemical, Ann Arbor, Mich.).

Substance | binding to canine PTH1 (displacement of 125I-hPTH (1-34)) (canine PTH1 receptor [1]) | binding to canine PTH1 (displacement of 125I-hPTH (1-34)) (canine PTH1 receptor [1]; listed as Human PTH) | intracellular cAMP accumulation (PTH1 activation) (canine PTH1 receptor [2]) | binding to canine PTH1 (displacement of 125I-hPTH (1-34)) (canine PTH1 receptor [1]; listed as canine PTHrP) | binding to canine PTH1 (displacement of 125I-hPTH (1-34)) (canine PTH1 receptor [1]; listed as canine/human parathyroid hormone related peptide (PTHrP) (1-34)) | binding to canine PTH1 (displacement of 125I-hPTH (1-34)) (canine PTH1 receptor [1]; listed as canine PTH)
human PTH (1-34): Human parathyroid hormone fragment 1-34, purchased from Peninsula Laboratories | specific displacement; also recorded: high affinity binding | specific binding | increase in intracellular cAMP |  |  | 
canine/human PTHrP (1-34): Canine/human parathyroid hormone related peptide fragment 1-34 | high affinity binding |  | increase in intracellular cAMP | specific binding | specific displacement | 
canine PTH (1-34): Canine parathyroid hormone fragment 1-34, custom synthesized by Princeton BioMolecules (SVSEIQFMHNLGKHLSSMERVEWLRKKLQDVHNF) | specific displacement; also recorded: high affinity binding |  | increase in intracellular cAMP |  |  | specific binding

— patent US20020146777A1, “Canine parathyroid hormone 1 receptor” (priority 2000, published 2002)
